B1: NY-ESO-1-VHH-1 (VHH)
VHH: QVQLQESGGGLVQAGGSLRLSCAASGTIFHQIDMGWYRQAPGKERELVAAIGTGSSTYYADSVKGRFTISRDNAKNTVYLQMNSLKPEDTAVYYCAAWHYYWGQGTQVTVSS
notes: Synthetic nanobody from a yeast display library
B2: NY-ESO-1-VHH-5 (VHH)
VHH: QVQLQESGGGLVQAGGSLRLSCAASGNISAVYTMGWYRQAPGKEREFVAAIDYGGSTYYADSVKGRFTISRDNAKNTVYLQMNSLKPEDTAVYYCASYYHGYWGQGTQVTVSS
notes: as for B1
B3: NY-ESO-1-VHH-9 (VHH)
VHH: QVQLQESGGGLVQAGGSLRLSCAASGYISYLNTMGWYRQAPGKEREFVATIGQGSSTYYADSVKGRFTISRDNAKNTVYLQMNSLKPEDTAVYYCADQLGYWGQGTQVTVSS
notes: as for B1
B4: NY-ESO-1-VHH-4 (VHH)
VHH: QVQLQESGGGLVQAGGSLRLSCAASGNIFYPQYMGWYRQAPGKEREFVAAISDGASTYYADSVKGRFTISRDNAKNTVYLQMNSLKPEDTAVYYCADLWYWGQGTQVTVSS
notes: as for B1

target: T1, …-HLA A0201 complex (human, biotinylated with BirA (site not stated)); assay: SPR (BIAcore), biotinylated pMHC on streptavidin-coupled CM5 chip, nanobody as analyte
T1 construct: Held on streptavidin in the ELISA and in SPR; also called NY-ESO-1 antigen; positive antigen NY-ESO-1

B1 and B2 are within 1.5-fold of each other in Kd: 96.6 nM for the first, 68.1 nM for the second.

Going from B3 to B4, the Kd falls from 1170 nM to 102 nM (11-fold).

Reference: patent publication EP4814019A1 (Zhejiang University, dated 2026)
